# Data from paper PMC6319348, “Phase I/II clinical trial of the targeted chemotherapeutic drug, folate-tubulysin, in dogs with naturally-occurring invasive urothelial carcinoma” (Oncotarget, 2018).
# Several values for one entry are separate records, joined by “and”; a condition that tells them apart may be missing. Equal entries are not always repeated. Entries after “also recorded” stand apart in the source; their conditions may differ. Where two headings read alike, the source gives them in different places. Marks after values point to notes of the source that are not given here.
# Tests used:
# [1] = Phase I dose escalation: safety, tolerability, MTD (VCOG-CTCAE); format: in vivo, dog; settings: dog, in vivo; intravenous, every two weeks; dogs with iUC; read-out: maximum tolerated dose (MTD)
# Experimental: (§1) […] […] The 10 pet dogs in the pilot study included six neutered male dogs and four spayed female dogs of a variety of breeds and weighing between 5 and 46 kg.
# (§2) Dogs in dosage cohorts were enrolled using a 3+3 trial design. Inter-patient and intra-patient dose escalation was permitted. Drug tolerability was assessed by owner questionnaire, physical exam, CBC the day of treatment and seven days following treatment, and biochemistry panel at four-week intervals. Toxicity was graded using VCOG-CTCAE criteria. The EC0531 dose was increased by 0.02 mg/kg in each subsequent dose cohort if no dose limiting toxicity (DLT) was recorded. DLT was defined as an adverse event (AE) > grade 2. When a grade 3 AE occurred, the cohort was expanded to at least six dogs including six new dogs, i.e. six dogs that had not received prior EC0531 at lower doses. If more than one grade 3 AE or any grade 4 or 5 AE occurred, then six dogs were enrolled at the previous cohort. The MTD was defined as the highest dose tolerated by six dogs with no more than one grade 3 AE and no grade 4–5 AE. Intra-patient dose escalation was permitted if no AEs had occurred after two doses of the drug had been administered.
# (§3) In individual dogs, the EC0531 dose was reduced by 10% if grade 2 toxicity was noted, and by 20% if grade 3 or higher toxicity was noted. Treatment was delayed by one week if the neutrophil count was <3,000/mm^3 or platelet count <100,000/mm^3 the day treatment was due.
# [2] = tested on: dogs with naturally-occurring invasive urothelial carcinoma (iUC); assay: as above; format: in vivo, dog
# Experimental: as §1, §2, §3
# [3] = tested on: naturally-occurring invasive urothelial carcinoma (iUC); assay: Phase I/II antitumor activity (tumor response, progression free interval); format: in vivo, dog
# Experimental: In order to estimate antitumor activity, the cohort of dogs receiving the MTD was expanded with the goal to assess antitumor effects in a minimum of 24 dogs treated at or above the MTD [37]. The effects of EC0531 on the tumor were assessed by cystosonography using a specific standardized protocol and physical exam including rectal exam at four-week intervals. Complete cancer staging (thoracic radiography with left lateral, right lateral, and ventrodorsal projections; abdominal radiography with right lateral and ventrodorsal projections; and complete abdominal ultrasonography) was performed at eight-week intervals. The response in the primary tumor was determined by comparing volume measurements by cystosonography as follows: complete remission (CR, no cancer detected), partial remission (PR, ≥50% decrease in tumor volume and no new tumor lesions), stable disease (SD, <50% change in tumor volume and no new tumor lesions), and progressive disease (PD, ≥50% increase in tumor volume or the development of new tumor lesions). Metastatic lesion response was assessed by RECIST criteria. Progression free interval (PFI) was defined as the time from start of EC0531 treatment until PD of local or metastatic lesion(s). Permission to perform a necropsy was requested at the time of the dog’s death (death from cancer or other causes). Tissues collected at necropsy were examined histologically and immunohistochemically to detect FR expression in primary and metastatic lesions.
# Stepwise Cox regression analysis was performed to assess the relationship between predictor variables and […] (PFI). The following variables were assessed: age, weight, sex, peripheral blood neutrophil-to-lymphocyte ratio at the start of treatment, tumor location (bladder vs urethra/prostate vs both), treatment beginning at < MTD or ≥ MTD, pretreatment with chemotherapy, concurrent use of COXi, IHC/ICC score, and best tumor response (PD vs SD vs PR/CR). Variables with p-values < 0.25 in univariate models were then included in multivariate modeling. Variable(s) with a p-value < 0.05 in the final multi-variable Cox regression model were considered to have a significant effect on PFI.
# [4] = Plasma pharmacokinetic analysis; format: in vivo, dog
# Experimental: Plasma pharmacokinetic analysis was conducted in six dogs sequentially enrolled in the trial. Blood was collected at 0, 2, 10, and 30 minutes, and at 1, 2, 8, and 24 hours after treatment.
# (§4) Tubes were centrifuged, and plasma collected and stored at –80° C.
# For the analysis of EC0531 concentrations in plasma, the EC0531 was extracted from 100 µL of dog plasma by 96-well solid phase extraction (SPE). Internal standard was added to all samples prior to extraction using a Strata X-A SPE plate (Phenomenex, Torrance, CA, USA). The eluate was collected, evaporated, and finally reconstituted with 85/15 water/acetonitrile with 40 mM mannitol. The extracted samples were injected into a UPLC/MS/MS system (Waters, Milford, MA, USA) using a BEH C18 reverse phase column (Waters) implementing a mobile phase gradient. Incurred sample concentrations were then back-calculated against a calibration curve prepared in blank dog plasma.
# (§5) Internal standard was added to all samples prior to extraction using a 200 µL SLE+ plate (Biotage, Charlotte, NC, USA). The eluate was collected, evaporated, and reconstituted with acetone prior to sealing and heating the collection plate for 1 hour. After incubation, the extracts were again evaporated and finally reconstituted prior to injection. The extracted samples were injected into a UPLC/MS/MS system (Waters) using a BEH shield RP18 reverse phase column (Waters) and eluted under isocratic conditions. […] Incurred sample concentrations were then back-calculated against a calibration curve prepared in blank dog plasma. […] Samples were homogenized in buffer with a bead beater, or hand held homogenizer. Aliquots (100 µL) of each sample were spiked with 400 µL internal standards in acetone. The extracts were sealed and incubated at 55° C for 1 hour. The extracts were then evaporated to remove acetone, and reconstituted. Finally, reconstituted samples were analyzed by injection into a UPLC-MS/MS system (Waters) to evaluate concentrations of EC0531 and metabolites against a prepared calibration curve.
# [5] = Drug concentration in iUC tissue samples; format: in vivo, dog; settings: three dogs, approximately three hours after treatment, 0.28 mg/kg EC0531
# Experimental: as §4, §5
# [6] = tested on: tumor xenograft mouse model; settings: free drug; before effective anti-tumor activity could be observed; cited from earlier work
# [7] = tested on: U.S. National Cancer Institute 60 tumor cell lines; set-up: method as in PMID 16489930; settings: percent of cell lines tested; cited from earlier work
# [8] = tested on: canine iUC; settings: randomized trial in dogs with iUC; cited from earlier work
# [9] = dogs that had received and failed prior chemotherapy
# [10] = non-responders, dogs with PD after the initial two treatments
# [11] = dog, plasma, iv, 0.28 mg/kg, Avg of six dogs, EC0531 in plasma, single 0.28 mg/kg IV
# [12] = Avg of six dogs, EC0347 in plasma after single EC0531 0.28 mg/kg IV
smiles,measurement,setting,value
CCCC(=O)OCN(C(=O)[C@@H](NC(=O)[C@H]1CCCCN1C)[C@@H](C)CC)[C@H](C[C@@H](OC(C)=O)c1nc(C(=O)N[C@@H](Cc2ccc(O)cc2)C[C@H](C)C(=O)NNC(=O)OCCSSC[C@H](NC(=O)[C@H](CCC(=O)NC[C@H](O)[C@@H](O)[C@H](O)[C@H](O)CO)NC(=O)CC[C@H](NC(=O)[C@H](CCC(=O)NC[C@H](O)[C@@H](O)[C@H](O)[C@H](O)CO)NC(=O)CC[C@H](NC(=O)[C@H](CCC(=O)NC[C@H](O)[C@@H](O)[C@H](O)[C@H](O)CO)NC(=O)CC[C@H](NC(=O)c2ccc(NCc3cnc4nc(N)[nH]c(=O)c4n3)cc2)C(=O)O)C(=O)O)C(=O)O)C(=O)O)cs1)C(C)C [EC0531],MTD,[1],0.26 mg/kg
same,tolerability of treatment at the MTD,[2]; 0.26 mg/kg every two weeks,well tolerated
same,withdrawal from the study due to AE / toxicity,[2]; 28 dogs,No dog withdrew; also recorded: no dogs were removed
same,toxicity noted,"[2]; 28 dogs, 311 doses","neutropenia, anorexia, or lethargy"
same,overall tolerability,"[2]; 28 dogs, total of 311 doses",generally well tolerated
same,infusion reaction,"[2]; a single dog, transient","hypotension, compensatory tachycardia, and subsequent syncopal episode"
same,Adverse events defined by VCOG-CTCAE,"[2]; dose 0.28 mg/kg, 10 dogs, 63 doses",1 dog with G1 vomiting^a 1 dog with G1lethargy and G3 weight loss (DLT)^a 1 dog with G4 neutropenia (DLT)^b 1 dog with G4 infusion reaction (DLT)^b
same,Adverse events defined by VCOG-CTCAE,"[2]; dose 0.34 mg/kg, 1 dog, 5 doses",G3 anorexia and 1 dog with G3 anorexia (DLT)
same,Adverse events defined by VCOG-CTCAE,"[2]; dose 0.18 (mg/kg), 1 dog, 6 doses",1 dog with G1 anorexia
same,Adverse events defined by VCOG-CTCAE,"[2]; dose 0.20 (mg/kg), 4 dogs, 14 doses",1 dog with G2 anorexia
same,Adverse events defined by VCOG-CTCAE,"[2]; dose 0.22 (mg/kg), 4 dogs, 10 doses",1 dog with G1 lethargy
same,Adverse events defined by VCOG-CTCAE,"[2]; dose 0.24 (mg/kg), 4 dogs, 16 doses",1 dog with G2 neutropenia
same,Adverse events defined by VCOG-CTCAE,"[2]; dose 0.26 (mg/kg), 6 dogs, 33 doses",1 dog with G1 lethargy 1 dog with G1 vomiting and G1 neutropenia 1 dog with G2 neutropenia 1 dog with G3 neutropenia (DLT) and G2 diarrhea
same,Adverse events defined by VCOG-CTCAE,"[2]; dose 0.30 (mg/kg), 2 dogs, 15 doses",1 dog with G3 neutropenia (DLT)
same,Adverse events defined by VCOG-CTCAE,"[2]; dose 0.32 (mg/kg), 1 dog, 2 doses",No adverse events observed
same,toxicity observed at doses higher than the MTD,[2]; doses above 0.26 mg/kg every two weeks,grade 3-4 neutropenia and gastrointestinal toxicity
same,thrombocytopenia,"[2]; one dog, heavily pretreated with chemotherapy, chronically low platelet counts",grade 2 thrombocytopenia
same,outcome of weekly dose interval,[2]; pilot study in pet dogs,suspended due to neutropenia
same,neutrophil nadir,"[2]; pilot study in pet dogs with iUC, n = 10 dogs",four to seven days after treatment
same,outcome of twice weekly dosing,"[2]; pilot study in pet dogs, dosing not continued",dose limiting-neutropenia and anorexia
same,"PR, percent of dogs",[3]; 28 dogs,11%
same,clinical benefit rate,[3]; 28 dogs,71%
same,PFI range,[3]; all dogs (n = 28),24 to 649 days
same,median PFI,[3]; all dogs (n = 28),103 days
same,hazard ratio for PFI,[3]; dogs achieving PR vs dogs with PD,0.003 (95% CI 0–0.066)
same,HR for earlier PD,[3]; [9],4.6 (95% CI 1.2–16.7)
same,PFI range,[3]; [9],34–162
same,median PFI,[3]; [9],95 days
same,PFI range,[3]; dogs with SD,56 to 296 days
same,median PFI,[3]; dogs with SD,200 days
same,hazard ratio for PFI,[3]; dogs with SD vs dogs with PD,0.013 (95% CI 0.001–0.124)
same,PFI range,[3]; [10],24–47
same,median PFI,[3]; [10],34 days
same,"clinical benefit (PR + SD), number of dogs",[3]; of 28 dogs,20 dogs
same,"partial remission (PR), number of dogs",[3]; of 28 dogs,three
same,"stable disease (SD), number of dogs",[3]; of 28 dogs,17 dogs
same,PFI or time of censoring,[3]; the three individual dogs achieving PR,162 days and 251 days and 649 days
same,tumor response,[3]; the two dogs receiving all of their doses below the MTD,SD and PD
same,Tmax,"[4]; Norwegian Elkhound, dog, individual dogs #1-6 (c0), EC0531 in plasma, single 0.28 mg/kg IV",2 min
same,AUC(0-inf),[4]; [11],1900 ng·h/mL
same,AUC(0-t),[4]; [11],1890 ng·h/mL
same,C0,[4]; [11],3990 ng/mL
same,Cmax,[4]; [11],3490 ng/mL
same,clearance,[4]; [11],2.78 mL/min/kg
same,Vd,"[4]; dog, plasma, iv, 0.28 mg/kg, Avg of six dogs, EC0531 in plasma, single 0.28 mg/kg IV, read-out: Vz",0.102 L/kg
same,half-life,"[4]; dog, plasma, iv, 0.28 mg/kg, Avg of six dogs, EC0531 in plasma, single 0.28 mg/kg IV, read-out: t1/2",24.7 min
same,half-life,"[4]; dog, plasma, iv, 0.28 mg/kg, dogs, 0.28 mg/kg IV, biphasic pharmacokinetic behavior, read-out: elimination half-life",~25 min
same,half-life,"[4]; dog, plasma, iv, 0.28 mg/kg, individual dogs #1-6 (c0), EC0531 in plasma, single 0.28 mg/kg IV, read-out: t1/2",22 min
same,Tmax,"[4]; dog, Avg of six dogs, EC0531 in plasma, single 0.28 mg/kg IV",2 min
same,peak plasma drug concentration relative to concentrations required to kill FR-expressing tumor cells in vitro,"[4]; dogs receiving 0.28 mg/kg, in vitro concentrations from ref 14",approximately 700 times
same,level at 3 h,"[5]; dog, iUC tumor tissue, iv, read-out: concentration of EC0531 in iUC tissues",3.9 ng/mL
same,concentration of EC0531 in iUC tissues,[5],below the level of detection
"CC[C@]1(O)C[C@@H]2CN(CCc3c([nH]c4ccccc34)[C@@](C(=O)OC)(c3cc4c(cc3OC)N(C)[C@H]3[C@@](O)(C(=O)NN)[C@H](O)[C@]5(CC)C=CCN6CC[C@]43[C@@H]65)C2)C1 [DAVLBH, desacetylvinblastine monohydrazide]",toxicity in tumor xenograft mouse model,[6],unacceptable toxicity
CCCC(=O)OCN(C(=O)[C@@H](NC(=O)[C@H]1CCCCN1C)C(C)CC)[C@H](C[C@@H](OC(C)=O)c1nc(C(=O)N[C@@H](Cc2ccc(O)cc2)C[C@H](C)C(=O)NN)cs1)C(C)C (stereo partly shown) [EC0347],"Cmax, EC0347 (free drug)",[4]; [12],2.3 ng/mL
same,"Tmax, EC0347 (free drug)",[4]; [12],12.0 min
same,"Tmax, EC0347 (free drug)","[4]; individual dogs #1-6 (c0), EC0347 in plasma after single EC0531 0.28 mg/kg IV",10.0 min
CC[C@H](C)[C@H](NC(=O)[C@H]1CCCCN1C)C(=O)N(COC(=O)CC(C)C)[C@H](C[C@@H](OC(C)=O)c1nc(C(=O)N[C@@H](Cc2ccc(O)cc2)C[C@H](C)C(=O)O)cs1)C(C)C [tubulysin A],cell lines with growth inhibition,[7],33%
CC[C@]1(O)C[C@@H]2CN(CCc3c([nH]c4ccccc34)[C@@](C(=O)OC)(c3cc4c(cc3OC)N(C)[C@H]3[C@@](O)(C(=O)OC)[C@H](OC(C)=O)[C@]5(CC)C=CCN6CC[C@]43[C@@H]65)C2)C1 [vinblastine],"PR, percent of dogs",[8],22%
